Laboratory results reported in PMC3293901, “Identification, Purification and Characterization of Laterosporulin, a Novel Bacteriocin Produced by Brevibacillus sp. Strain GI-9” (PLoS ONE, 2012).

Tests used:
B. subtilis = assay: Growth inhibition assay of the synthetic partial peptide; assay type: cell-based; details: custom synthesized 19-mer, indicator strain B. subtilis
From the text: (§1) The molecular mass observed for laterosporulin by MALDI-TOF was 5605.8 Da ( Fig. 3 ), which is in good agreement with mass obtained by gel filtration chromatography ( Fig. 2A ). The N-terminal sequence of laterosporulin yielded partial sequence of ^1A(M)Q(C)QG(C/Q)PDAISGWTHTDYQCH^19 for two independently processed samples. The uncertainties at the 1st, 2nd and 4th positions obtained in N-terminal sequences were considered to predict the antibacterial activity of each possible peptide sequence using a database of peptides with known antimicrobial potency. […] To confirm the antimicrobial activity of this partial peptide, it was custom synthesized, mass was confirmed by MALDI-TOF and the synthetic peptide was examined in growth inhibition assays using indicator strains B. subtilis and E. coli.
(§2) To evaluate antibacterial function of the N-terminal peptide, a 19-mer peptide representing the N-terminal sequence of the bioactive protein was synthesized using standard Fmoc-chemistry on 2-chlorotrityl resin (0.2 mmol/g). Synthesis was carried out on a semi-automated synthesizer (PS-II) (Protein Technologies Inc., AZ USA). It was cleaved with TFA and purified by RP-HPLC system (Dionex, Ultimate-3000) using C-18 analytical column. The purified peptide was subjected to MALDI-TOF analysis for confirmation of molecular mass.

E. coli [1] = assay: as above; assay type: cell-based; details: custom synthesized 19-mer, indicator strain E. coli
From the text: as §1, §2

B.subtilis = assay: MIC, microtiter plate dilution assay; assay type: cell-based; details: purified laterosporulin, micro-titer plates, triplicates, 30°C, OD 600 nm, 48 h
Procedure: (§3) The MIC of bacteriocin for different strains was evaluated by using a microtiter plate dilution assay. Test strains were grown to logarithmic phase under optimal conditions (up to 0.3 OD) and the test was performed in triplicates. Each well of the microtiter plate was added with 200 µl of fresh nutrient medium and 50 µl of test strains in different rows. Subsequently, different dilutions (50 µl) of freshly prepared bacteriocin were added to each well. The first column of the microtiter plate was left as a blank while reading through an ELISA plate reader (Thermo Scientific). The microtiter plates were incubated at 30°C incubator and OD was measured at 600 nm at different time intervals.

S. aureus = assay: MIC, microtiter plate dilution assay; assay type: cell-based; details: purified laterosporulin, micro-titer plates, triplicates, 30°C, OD 600 nm, 48 h
Procedure: as §3

E. coli [2] = assay: Bactericidal effect by scanning electron microscopy; assay type: cell-based; details: 500 µg/ml purified peptide, 4 hours, 37°C, about 2×10^7 cells/ml; compared to untreated bacteria
Procedure: To examine the bactericidal activity, E.coli cells were grown in NB to an exponential phase, harvested by centrifugation. The pellet obtained was resuspended in fresh NB and aliquots of 5 ml containing about 2×10^7 cells/ml were incubated at 37°C for 4 hours with 500 µg/ml laterosporulin. Samples at 0, 2 and 4 hours interval were centrifuged and pellets were resuspended in 500 µl of phosphate buffer. Each sample was spread on a poly (L-lysine)-coated glass slides (18×18 mm) to immobilize bacterial cells and incubated at 30°C for 90 min. They were fixed with modified Karnovsky's fixative and dehydrated with a graded ethanol series.

[3] = Heat stability, residual antimicrobial activity; assay type: physicochemical; details: 120°C for 15 min
Procedure: (§4) The sensitivity of the purified bacteriocin towards different pH, temperature and proteases was evaluated. To determine pH and temperature resistance, the purified peptide was incubated at different pH values between 2.0–12.0 and temperatures 80, 100°C for 30 min and 120°C for 15 min. Different hydrolytic enzymes including pepsin, trypsin, chymotrypsin, proteinase K, pronase E and amylase were incubated with bacteriocin for 6 hours at 37°C to ensure their effect. The enzyme activity was terminated by heating at 80°C before the bacteriocin activity was confirmed.

[4] = pH stability, residual antimicrobial activity; assay type: physicochemical
Procedure: as §4

chymotrypsin = assay: Resistance to proteolytic enzyme, residual antimicrobial activity; assay type: in vitro ADME; details: 6 hours at 37°C, enzyme terminated by heating at 80°C
Procedure: as §4

pepsin = assay: as above; assay type: in vitro ADME; details: 6 hours at 37°C, enzyme terminated by heating at 80°C
Procedure: as §4

pronase E = assay: as above; assay type: in vitro ADME; details: 6 hours at 37°C, enzyme terminated by heating at 80°C
Procedure: as §4

proteinase K = proteinase K (Parengyodontium album, UniProt P06873); assay: as above; assay type: in vitro ADME; details: 6 hours at 37°C, enzyme terminated by heating at 80°C
Procedure: as §4

trypsin = assay: as above; assay type: in vitro ADME; details: 6 hours at 37°C, enzyme terminated by heating at 80°C
Procedure: as §4

[5] = Treatment with dithiothreitol, residual antimicrobial activity; assay type: physicochemical; details: DTT used to disrupt disulfide bonds; data not shown
L. monocytogenes = assay: Growth inhibition of test strain; assay type: cell-based; details: test strain L. monocytogenes (MTCC 839)
Procedure: (§5) The CFB of strain GI-9 was used to determine the antimicrobial activity. Culture was grown for 48 hours in nutrient broth (NB, Himedia) and subsequently cells were removed by centrifugation (10,000 rpm for 10 min, 4°C). The supernatant obtained was filtered by using 0.22 µm filter (Millipore). The filtrate was diluted by two fold dilution and amounts of 100 µl of different dilutions were used to test the activity. These dilutions were added to the wells that are prepared in plates containing nutrient agar medium seeded with test organism. Above test was also performed using minimal medium to check influence of the medium components on antimicrobial activity. A growth curve up to 24 hours was prepared for strain GI-9 to examine the bacteriocin production at different stages. One unit of bacteriocin was defined as the […] dilution that was given an inhibition zone around the well and reciprocal of this dilution is defined as the unit of antimicrobial activity per ml.

[6] = system: Gram-positive and Gram-negative bacteria; assay: Antibacterial spectrum; assay type: cell-based; details: wide range of Gram-positive and Gram-negative bacteria
Procedure: as §5
The MIC of bacteriocin for different strains was evaluated by using a microtiter plate dilution assay. […] The first column of the microtiter plate was left as a blank while reading through an ELISA plate reader (Thermo Scientific). The microtiter plates were incubated at 30°C incubator and OD was measured at 600 nm at different time intervals.

proteinase K, sequence (P06873 106-384): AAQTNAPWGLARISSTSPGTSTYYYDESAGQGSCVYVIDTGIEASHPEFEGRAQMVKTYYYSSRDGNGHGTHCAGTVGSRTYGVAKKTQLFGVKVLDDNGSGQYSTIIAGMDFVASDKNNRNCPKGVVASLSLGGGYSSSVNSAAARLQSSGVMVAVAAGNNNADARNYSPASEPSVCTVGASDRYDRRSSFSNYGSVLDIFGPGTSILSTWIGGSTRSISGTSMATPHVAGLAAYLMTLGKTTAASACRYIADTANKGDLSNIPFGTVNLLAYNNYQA

Substance | antimicrobial activity (B. subtilis) | antimicrobial activity (E. coli [1]) | MIC (sensitivity in words, values only in Fig. 4) (B.subtilis) | MIC (sensitivity in words, values only in Fig. 4) (S. aureus) | bactericidal effect, cell morphology by SEM (E. coli [2]) | heat stability (antimicrobial activity after exposure) [3] | pH stability (antimicrobial activity after incubation) ([4]; above pH 10 (tested up to 12.0)) | pH stability (antimicrobial activity after incubation) ([4]; pH between 2.0 to 10.0) | antimicrobial activity after incubation with chymotrypsin (chymotrypsin) | antimicrobial activity after incubation with pepsin (pepsin) | antimicrobial activity after incubation with pronase E (pronase E) | antimicrobial activity after incubation with proteinase K (proteinase K) | antimicrobial activity after incubation with trypsin (trypsin) | antimicrobial activity after treatment with dithiothreitol (DTT) [5] | growth inhibition (L. monocytogenes) | antibacterial activity [6]
ACQCPDAISGWTHTDYQCH | weak antimicrobial activity at significantly higher concentration | weak antimicrobial activity at significantly higher concentration |  |  |  |  |  |  |  |  |  |  |  |  |  | 
^1A(M)Q(C)QG(C/Q)PDAISGWTHTDYQCH^19 [laterosporulin, 5.6 kDa bacteriocin purified from culture supernatant of Brevibacillus sp. strain GI-9] |  |  | highly sensitive | highly sensitive | significant modifications in cell shape and morphology | no reduction in antimicrobial activity | reduced significantly | no reduction in antimicrobial activity | did not show any reduction | did not show any reduction | did not show any reduction | did not show any reduction | did not show any reduction | did not affect | could inhibit the growth | active
